T1: B-cat-Halo (beta-catenin HaloTag fusion expressed in HEK293 cells) (UniProt P35222 1-781)
T1 sequence (looked up): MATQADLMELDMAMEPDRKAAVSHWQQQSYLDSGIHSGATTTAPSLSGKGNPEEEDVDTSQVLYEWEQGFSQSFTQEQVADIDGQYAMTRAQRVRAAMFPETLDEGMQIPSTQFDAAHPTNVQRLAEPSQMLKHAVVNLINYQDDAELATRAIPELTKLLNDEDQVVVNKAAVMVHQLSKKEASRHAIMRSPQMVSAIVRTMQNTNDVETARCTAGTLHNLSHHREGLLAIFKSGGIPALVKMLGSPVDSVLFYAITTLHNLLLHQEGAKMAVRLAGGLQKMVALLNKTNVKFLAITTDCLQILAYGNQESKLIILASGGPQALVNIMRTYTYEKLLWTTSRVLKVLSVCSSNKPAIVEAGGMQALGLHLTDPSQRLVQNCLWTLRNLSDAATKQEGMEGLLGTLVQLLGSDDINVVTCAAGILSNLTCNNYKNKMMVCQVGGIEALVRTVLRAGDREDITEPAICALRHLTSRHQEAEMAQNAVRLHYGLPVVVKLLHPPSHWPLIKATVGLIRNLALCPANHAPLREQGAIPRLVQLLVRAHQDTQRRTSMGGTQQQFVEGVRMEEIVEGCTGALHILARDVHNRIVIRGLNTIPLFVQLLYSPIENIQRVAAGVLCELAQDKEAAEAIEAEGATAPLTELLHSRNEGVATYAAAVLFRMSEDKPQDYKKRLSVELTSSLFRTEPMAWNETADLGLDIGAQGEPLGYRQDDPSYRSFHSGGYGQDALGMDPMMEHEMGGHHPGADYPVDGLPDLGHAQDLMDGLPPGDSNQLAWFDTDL

T2: B-cat-Halo (UniProt P35222 1-781, HaloTag NanoBRET 618 Ligand bound to the HaloTag in the assay)
T2 sequence (looked up): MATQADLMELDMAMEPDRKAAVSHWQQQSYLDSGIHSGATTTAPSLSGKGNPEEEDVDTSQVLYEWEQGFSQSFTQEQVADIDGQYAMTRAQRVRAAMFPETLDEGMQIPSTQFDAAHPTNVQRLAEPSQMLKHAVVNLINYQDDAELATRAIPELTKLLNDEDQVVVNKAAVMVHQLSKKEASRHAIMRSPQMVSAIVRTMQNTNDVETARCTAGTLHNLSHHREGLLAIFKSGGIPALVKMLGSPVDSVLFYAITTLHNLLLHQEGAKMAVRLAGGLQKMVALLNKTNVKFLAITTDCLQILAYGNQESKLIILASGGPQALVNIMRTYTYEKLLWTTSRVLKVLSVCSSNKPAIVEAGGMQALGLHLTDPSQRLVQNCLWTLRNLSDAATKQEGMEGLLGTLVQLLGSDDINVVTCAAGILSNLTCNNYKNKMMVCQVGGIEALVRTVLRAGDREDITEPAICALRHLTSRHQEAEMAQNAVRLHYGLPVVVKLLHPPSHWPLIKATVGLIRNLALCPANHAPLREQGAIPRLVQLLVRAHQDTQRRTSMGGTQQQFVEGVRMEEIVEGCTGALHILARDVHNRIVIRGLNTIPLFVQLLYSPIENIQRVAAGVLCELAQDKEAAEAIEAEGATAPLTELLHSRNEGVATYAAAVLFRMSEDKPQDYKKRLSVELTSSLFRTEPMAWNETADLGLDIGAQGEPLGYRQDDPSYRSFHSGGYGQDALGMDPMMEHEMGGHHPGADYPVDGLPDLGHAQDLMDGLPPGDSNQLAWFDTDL

B1: I-916 (peptide)
peptide: Ac-[αAllylPro]D[tBuAla][B5(3)]DDAAFN[PyrS2(4)][3Thi][Bta]QK(1Napc)-NH2
modifications: staple 1-4, 4-11; reading uncertain; also: printed as Ac-PL3-Asp-Npg-B5-Asp-Asp-Ala-Ala-Phe-Asn-PyrS2-3Thi-BztA-Gln-[1Napc]Lys-NH2
B2: I-927 (peptide)
peptide: Ac-[αAllylPro]D[tBuAla][B5(3)]D[TfeGA″]AAFN[PyrS2(4)][2F3MeF][Bta]Q-NH2
modifications: staple 1-4, 4-11; reading uncertain; also: staple stereoisomer, earlier-eluting HPLC peak
B3: I-911 (peptide)
peptide: Ac-[αAllylPro]D[tBuAla][B5(3)]DDAAFN[PyrS2″][3Thi][Bta]QK(mPEG2)-NH2
modifications: staple 1-4, 4-11; not fully specified; printed as Ac-PL3-Asp-Npg-B5-Asp-Asp-Ala-Ala-Phe-Asn-PyrS2-3Thi-BztA-Gln-[mPEG2]Lys-NH2

Starred links: 1 amine or outer side, 2 acyl side, 3 side chain; linkers in the order of their positions; H or OH if unused. Positions of bridges follow the written chain, without caps; N, C: chain ends. Non-standard residues stand in square brackets, D forms with d. Primed or numbered codes have the meaning given here. *: point of attachment. PyrS2″ = (S)-3-amino-1-((pent-4-en-1-yloxy)carbonyl)pyrrolidine-3-carboxylic acid (stapling residue), C=CCCCOC(=O)N1CC[C@@](N[*:1])(C(=O)[*:2])C1; TfeGA = (S)-2-amino-3-((carboxymethyl)(2,2,2-trifluoroethyl)amino)propanoic acid, O=C([C@H](CN(CC(=O)[*:3])CC(F)(F)F)N[*:1])[*:2]; PyrS2 = (S)-3-amino-1-((pent-4-en-1-yloxy)carbonyl)pyrrolidine-3-carboxylic acid, C=CCCCOC(=O)N1CC[C@@](N[*:1])(C(=O)[*:2])C1; PyrS1 = (S)-3-amino-1-((but-3-en-1-yloxy)carbonyl)pyrrolidine-3-carboxylic acid, C=CCCOC(=O)N1CC[C@@](N[*:1])(C(=O)[*:2])C1; MorphAsn = (S)-2-amino-4-morpholino-4-oxobutanoic acid, O=C(C[C@H](N[*:1])C(=O)[*:2])N1CCOCC1; B5(3) = 2,2-bis(4-pentenyl)glycine (stitching residue), C=CCCCC(CCCC=C)(N[*:1])C(=O)[*:2]; Me2NCBz = 4-((dimethylamino)methyl)benzoyl on Lys side chain, CN(C)Cc1ccc(C(=O)*)cc1; B5 = 2-amino-2-(pent-4-en-1-yl)hept-6-enoic acid, C=CCCCC(CCCC=C)(N[*:1])C(=O)[*:2]; B6 = 2-amino-2-(hex-5-en-1-yl)oct-7-enoic acid, C=CCCCCC(CCCCC=C)(N[*:1])C(=O)[*:2]; Me2Asn = listed as N4-methyl-L-asparagine, CNC(=O)C[C@H](N[*:1])C(=O)[*:2]; B5(28) = 2,2-bis(4-pentenyl)glycine, C=CCCCC(CCCC=C)(N[*:1])C(=O)[*:2]; MeAsn = N4-methyl-L-asparagine, CNC(=O)C[C@H](N[*:1])C(=O)[*:2]; MeGln = N5-methyl-L-glutamine, CNC(=O)CC[C@H](N[*:1])C(=O)[*:2]; Phe(3-COOH) = N[C@@H](Cc1cccc(C(=O)O)c1)C(=O)O; 2F3MeF = Cc1cccc(C[C@H](N[*:1])C(=O)[*:2])c1F; Phe(2-CF3) = N[C@@H](Cc1ccccc1C(F)(F)F)C(=O)O; Phe(2-Cl) = N[C@@H](Cc1ccccc1Cl)C(=O)O; Bta = N[C@@H](Cc1csc2ccccc12)C(=O)O; αAllylPro = C=CC[C@@]1(C(=O)O)CCCN1; tBuAla = CC(C)(C)C[C@H](N)C(=O)O; 3Thi = N[C@@H](Cc1ccsc1)C(=O)O; Cha = N[C@@H](CC1CCCCC1)C(=O)O; S8 = C=CCCCCCC[C@](C)(N)C(=O)O; PyrS2(4) = not defined here; TfeGA″ = not defined here; Aib = CC(C)(N)C(=O)O; Butyryl = CCCC(=O)*

The text below walks through data of US20240116985A1 (published 2024).

One test addresses T1, B-cat-Halo (beta-catenin HaloTag fusion …). The test is described as follows: cell-based or functional assay.
Regarding Ac-[αAllylPro]N[Cha][B5]DQQAFL[PyrS2]F[Bta][MorphAsn]-NH2 (staple 1-4, 4-11) [I-2504], the “NanoBRET Abs IC50” value was over 20 µM.

In the case of Ac-[αAllylPro]D[tBuAla][B5]NT[Aib]AF[Me2Asn][PyrS2][3Thi][Bta]N-NH2 (staple 1-4, 4-11) [I-2496], the “NanoBRET Abs IC50” value is over 20 µM.

With Ac-[αAllylPro]D[tBuAla][B5]NT[Aib]AF[MeAsn][PyrS2][3Thi][Bta]N-NH2 (staple 1-4, 4-11) [I-2497], the “NanoBRET Abs IC50” value is over 20 µM.

With Ac-[αAllylPro]N[Cha][B5]DQ[Me2Gln]AFL[PyrS2]F[Bta][MorphAsn]-NH2 (staple 1-4, 4-11) [I-2501], the “NanoBRET Abs IC50” value is over 20 µM.

For Ac-[αAllylPro]D[tBuAla][B6]D[Phe(3-COOH)]AAFL[PyrS1][Phe(2-CF3)][Bta]Q-NH2 (staple 1-4, 4-11) [I-2508], the “NanoBRET Abs IC50” value amounted to 27.3 µM.

With Ac-[αAllylPro]N[Cha][B5]DQ[MeGln]AFL[PyrS2]F[Bta][MorphAsn]-NH2 (staple 1-4, 4-11) [I-2502], the “NanoBRET Abs IC50” value is over 20 µM.

For a further test, the target named is T2, B-cat-Halo. The test can be described thus: cell-based or functional assay.
Regarding Ac-[αAllylPro]D[tBuAla][B5(3)]D[TfeGA]AAFN[S8][Phe(2-Cl)][Bta]Q-NH2 (staple 1-4, 4-11) [I-929], the “NanoBRET Abs IC50” value came to 10.3 µM.

On to B1, for which the “NanoBRET Abs IC50” value worked out at 13.6 µM.

Turning to Ac-[αAllylPro]D[tBuAla][B5(3)]D[TfeGA]AAFN[PyrS2″][Phe(2-CF3)][Bta]Q-NH2 (staple 1-4, 4-11; not fully specified) [I-928], the “NanoBRET Abs IC50” value was 6.1 µM.

Turning to Ac-[αAllylPro]D[tBuAla][B5(28)]D[TfeGA″]AAFT[PyrS2][Phe(2-Cl)][Bta]Q-NH2 (staple 1-4, 4-11; reading uncertain) [I-922], the “NanoBRET Abs IC50” value turned out to be 2.7 µM.

Turning to Ac-[αAllylPro]D[tBuAla][B5(3)]DDAAFN[PyrS2″][3Thi][Bta]QK(Me2NCBz)-NH2 (staple 1-4, 4-11) [I-910], the “NanoBRET Abs IC50” value stood at 29.8 µM.

As for Ac-[αAllylPro]D[tBuAla][B5(3)]DDAAFN[PyrS2″][3Thi][Bta]QK(Butyryl)-NH2 (staple 1-4, 4-11) [I-917], the “NanoBRET Abs IC50” value was 19.7 µM.

As for B2, the “NanoBRET Abs IC50” value was 8.2 µM.

On to B3, for which the “NanoBRET Abs IC50” value was 22.9 µM.
